Assay results taken from article PMC5963871, “Regulation and function of H3K36 di-methylation by the trithorax-group protein complex AMC” (Development (Cambridge, England), 2018).

T1: Drosophila Ash1_(XL-SET) (Ash1_(1275-1522)) (Drosophila, UniProt Q9VW15 1275-1522)
T1 sequence (looked up): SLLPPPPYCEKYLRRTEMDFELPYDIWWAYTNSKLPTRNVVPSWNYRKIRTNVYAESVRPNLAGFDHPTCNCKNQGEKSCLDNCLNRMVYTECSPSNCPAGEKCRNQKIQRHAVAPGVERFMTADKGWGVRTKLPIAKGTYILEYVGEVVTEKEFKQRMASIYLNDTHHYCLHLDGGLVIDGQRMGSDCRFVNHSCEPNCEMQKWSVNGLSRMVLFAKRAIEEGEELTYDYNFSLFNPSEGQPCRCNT

B1: MRG domain of human MRG15 (MRG15_(151-362), MRG15MRG) (domain or fragment)
chain: KNKQKTPGNGDGGSTSETPQPPRKKRARVDPTVENEETFMNRVEVKVKIPEELKPWLVDDWDLITRQKQLFYLPAKKNVDSILEDYANYKKSRGNTDNKEYAVNEVVAGIKEYFNVMLGTQLLYKFERPQYAEILADHPDAPMSQVYGAPHLLRLFVRIGAMLAYTPLDEKSLALLLNYLHDFLKYLAKNSATLFSASDYEVAPPEYHRKAV
B2: Drosophila full-length MRG15 (E. coli) (natural protein, UniProt Q9Y0I1 1-424, looked up)
chain: MGEVKPAKVENYSTGTDANTLFVDGERVLCFHGPLIYEAKVLKTKPDATPVEYYIHYAGWSKNWDEWVPENRVLKYNDDNVKRRQELARQCGERSKKDNKKGSAKAKKMEQMRNESRASTPSKDSNTSQSTASSTPTTSAGPGSKSEAGSTGTTTTNSTANSTTSRAHRKSTQSTPSTARPGTPSDKKEDPAAAETTEEEGPVAPKKKRMSEQRPSLTGSDVAEKPLPPTTTPSTPTTEPAPCVESEEAYAAKVEVKIKIPDELKHYLTDDWYAVVREHKLLELPAKVTVQQISEQYLAHKKSVKSTSASKEVAINDVLDGIVEYFNVMLGSQLLYKFERTQYADVMQKHPDTPLSELYGSFHLLRLFVRLGSMLSYSALDQQSMQNLLTHVQDFLKFLVKNSSIFFSMSNFINVDPEYVRNAQ

Assays:
[1] = target: human ASH1L_(XL-SET) (ASH1L_(2035-2288)) (human, UniProt Q9NR48 2035-2288); experiment: cell-based or functional assay
[2] = target: T1, Drosophila Ash1_(XL-SET) …; experiment: cell-based or functional assay

Binder | HMTase activity on recombinant oligonucleosome arrays (methyl-3H incorporation into histone H3, fluorography): ASH1L_(XL-SET):MRG15MRG complex compared with ASH1L_(XL-SET) alone [1] [fold] | HMTase activity on recombinant oligonucleosome arrays (methyl-3H incorporation into histone H3, fluorography): Ash1_(XL-SET):MRG15 complex compared with Ash1_(XL-SET) alone [2] [fold]
B1 | ~7 | 
B2 |  | ~30
